The supplement of paper PMC12042874
± gives the uncertainty stated by the source.

Key:
[1] = amyloid nucleation score (Sup35N fusion, yeast selection) (log enrichment); library NNK3; higher = more nucleation; inactive = no reads after selection
How it was run: (§1)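 Peptides of 20 random codons, each fused to Sup35N, were expressed in psi-negative yeast. Cells were induced with 100 μM copper sulfate for 24 hours and grown 7 days at 30°C on medium lacking adenine and uracil, and plasmid inserts before and after selection were Illumina-sequenced. Nucleation scores are DiMSum log enrichments of output over input reads, centred on the mode score of non-aggregating sequences, and sequences under 100 input reads were excluded.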

[2] = amyloid nucleation score (Sup35N fusion, yeast selection) (log enrichment); library NNK1; higher = more nucleation; inactive = no reads after selection
How it was run: as §1

[3] = amyloid nucleation score (Sup35N fusion, yeast selection) (log enrichment); library NNK2; higher = more nucleation; inactive = no reads after selection
How it was run: as §1

Substance	amyloid nucleation score [2]	other results
GVLLV	0.129 ± 0.93	amyloid nucleation score [1]: inactive
DVGSNKGAIIGLMVGGVVIA	3.61 ± 0.19	amyloid nucleation score [3]: 2.4 ± 0.19
AFWFMCWGMTRTRYV	2.73 ± 0.11	
ACEKLQVNW	0.329 ± 0.35	
NLLVCGVLRNCVSGTMF	0.312 ± 1.2	
TLFCYADMWYNLYHRIVKVR	1.52 ± 0.48	
AKLAS	0.151 ± 0.59	
NFLPRTCMLVARFRRKTYLL	0.879 ± 0.54	
SHLGVMLNIRYNKSPQTTAP	2.1 ± 0.41	
RSSWQMSPNMLLTNLNCCSS	6.367 ± 0.047	
DARLC	-0.226 ± 1	
IFKGGFTWYCCDKARGLKGR	0.411 ± 0.34	
LFVSNMC	-1.47 ± 0.91	
TLYCTFSTWYPLYKLQHDRY	4.55 ± 0.14	
YFYIPFNEMNRWTYCCIRWW	-0.04 ± 0.36	
YFKSWTLNMCVGIKNK	4.66 ± 0.056	
KGWLKTGVYGHVSFVGNIME	0.467 ± 0.75	
FNAAYIAGVGNLMTWDNSSN	-1.07 ± 0.61	
LYIYWCSWVNGTFT	0.393 ± 0.33	
PPHLLFCYNMVLTWWLYAFA	0.088 ± 1.2	
YLDFNHM	inactive	
MSRCLIDSIEIFHWTGGRYA	-0.386 ± 1.2	
WLDHEISSELAGYPLWLSAN	2.19 ± 0.17	
RAMDYFALEIQLVPRRLVQL	0.18 ± 0.41	

Substance	amyloid nucleation score [2]	other results
RAHNKISDDTRAFMGSIFSE	-0.05 ± 1.4	
GSYFGKGSVK	0.563 ± 0.97	
IVNRHEL	0.63 ± 0.9	
LYSDGLFANRTWLYF	1.01 ± 0.61	
YFGVFCQRMMVTALSPKNPT	-0.369 ± 0.32	
LMEIFLNLPPANKNSYNRR	-0.766 ± 2.4	
TERFMYFKNLFVSSWTSHG	1.51 ± 0.14	
TLCFQTISPRRPQLRWTWAH	0.875 ± 0.61	
TFRFSGYSLNISFKNCEHYV	inactive	
RVLDLKWPCYMGSVNLASRR	0.016 ± 0.74	
VSQSETCPGV	0.433 ± 0.53	
YKTEHNRSIDLLGISSSSFL	-0.322 ± 1	
HVCSFLQAGAHWRRVAVCAG	0.124 ± 0.73	
NNNESEWMRGFSLKEGPTQE	0.111 ± 0.84	
CCPRYMSIDSIDDRFYDKSF	inactive	
RDTHRDNRNLPSHLSSVYRK	-1.35 ± 2.4	
DYEPLASDAREEDFCNARRG	-0.677 ± 0.64	
RGFQTKSKGLARRSMYKCWE	-0.275 ± 0.31	
VFLRL	4.48 ± 0.1	
FATAGKFVY	-1.23 ± 1.2	
REYNSYLLGVGHNLQLRSYI	inactive	
WFTPNVWAGGVWHHVLGFGG	-0.93 ± 0.65	
MSGFTESRCMGRMVALGPFD	0.4 ± 1.4	
AYSVRICLDFGKNG	inactive	

Substance	amyloid nucleation score [2]	other results
CFQVYICVVDSDYRNFLWDA	3.73 ± 0.077	
RLSVVDELLCVLILGFRCYT	0.372 ± 1.4	
LNICGIWGGVVSEGARNVFY	0.063 ± 0.33	
MFYKSRLYNRYRYRHRCYNT	-0.072 ± 0.27	
CLFDHKFMRIALHL	inactive	
LVYSFRKTFSC	7.523 ± 0.047	
DALII	0.257 ± 0.4	
QNHSGPGLMIRILANAQKWF	-0.93 ± 2.4	
AYPWRITFDAWISYV	0.294 ± 0.76	
KNWARIMRNRNYSVSAILW	0.163 ± 0.61	
SYLFVKGLIYSLSRLCLEVN	-1.4 ± 0.7	
FVCRFQYFSRYATNYFYVWC	inactive	
TRYGECAGWSGPYIADSGSA	-0.001 ± 0.31	
NIVIIVVSNLN	3.44 ± 0.082	
TLSGSYVF	-0.567 ± 0.3	
AAFTSSNYMFGFYFGLWVSN	1.55 ± 0.45	
FLGTI	-1.08 ± 2.7	
YRKFHPGKRL	0.193 ± 0.58	
ARVSGILLVMLCRYHFGLRE	0.102 ± 0.69	
MCLLKGGSLVIVCGSGH	5.76 ± 0.061	
CEGMVIMVGRVLRTSYLYNL	0.001 ± 0.61	
YMLLTLGLTTLVCNSHRLVL	0.026 ± 0.55	
